Laboratory results as given in the supplement of paper PMC9170038.

Test system: MS2 coat protein
Assay: apparent KD of MS2 coat protein; higher = weaker reporter binding
Settings: Eterna round: R107
Method in brief: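 The designed RNA switches were transcribed on-chip from Illumina sequencing clusters. In 100 mM Tris-HCl pH 7.5, 80 mM KCl and 4 mM MgCl2, without or with constant ligand, they were titrated with SNAP-549-labelled MS2 coat protein from 0.7 or 1.5 nM to 3 µM in twofold steps. Apparent KD is the per-design median of normalised cluster binding-curve fits.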

[1] = input ligand: theophylline 20 uM
[2] = input ligand: theophylline 2 mM
[3] = input ligand: tryptophan 2.4 mM

Sequence	apparent KD of MS2 coat protein (input ligand: arginine 13.2 mM) [nM]	apparent KD of MS2 coat protein (input ligand: none) [nM]	apparent KD of MS2 coat protein [1] [nM]	apparent KD of MS2 coat protein [2] [nM]	apparent KD of MS2 coat protein [3] [nM]
AGUCUUAAAGGAAGGAGCGCAGUCAUAACAUGAGGAUCACCCAUGUCGAUGUGAGGGUCAUUGCAGGUAGGUCGCCUUACUAAGA [Same State - Arginine B (Freestyle 5)]	22.8	40.4	46	30.2	40.6
CUGUACAUCUCGGCCGCCACUGACAUGAGGAUCACCCAUGUAGUGCCGAUGAGAGACUUAUCGGCCAGGACCGGGAGGUGUGCAG [SSTryp B #32]	7.57	9.94	10.1	7.83	11.9
GUCAGUAGAACAGAUACCAGUCAAAAGCUGUGAUCUCAUAACAUGAGGAUCACCCAUGUUGACCCUUGGCAGCUGUGGGCGAGGG [#19 Exclusion-TheophyllineB]	27		29.1		19.1
ACAUGAGGAUCACCCAUGUGAAGGCACGAUACCAGCUGAUCCCGUGGCCCUUGGCAGCGUCCGGUUUGGUCCGGCGGAUGGGACG [vvamullin]	13.1	18.8	33.6	21.9	23
UGGCGAGAAGGAAGGAGCGUCAGCUGAGUUACAUGAGGAUCACCCAUGUUUUACAUUGUGUGACAGGUAGGUCGCCUUCUGCCCU [SS-ArgB20]	15.7	14	18.8	16.9	13.5
AUGGCGUUGGUGAGGCGGUUUAAUGGCGAUACCAGCGUGGAAACACGCCCUUGGCAGCGCCAAAACAUGAGGAUCACCCAUGUUA [Budejovice]	13.2	13.4	28	132	16.4
UACAUGAGGAUCACCCAUGUGUAGAGGGAUACCAGUGACAGUAAGCACCCUUGGCAGCCCGUGAACAAAGGGUGGGCAAAAUAGU [#16 Exclusion-TheophyllineA]	48.2	39.2	60.3	47.4	33.9
AAUUCCUCACAUGAGGAUCACCCAUGUGAAGGAGCGCGGAAUAACGCAGGUAGGUCGCACAUGGAAACCGCUGCGAAAGCAGCAA [MAT - Exclusion Arginine A - Mod of Eli - D26]	13.1	18.7	24	18.1	16.3
UAAUCUGGUCUUCGAUAGGUGAUCCUCAAACGAGGACCGGUACGGCCGCCACUCGAUAACAUGAGGAUCACCCAUGUACGAGUGA [|T'-M'-Trp-Ms2|_Design16b]	52.8	134	155	205	119
UUGUUGUACGGAAGGAGCGUGUAAGAUUAAGAACAUGAGGAUCACCCAUGUUUUAAGGGAACACAGGUAGGUCGCCGUGUGGUGG [11.Q]	14	15.1	20	16.4	16.2
ACGGAGAUUGCUAAAUGUUGGCGAGCGGAUACCAGCCUAUUAUUGGGCCCUUGGCAGCCGACAUGAGGAUCACCCAUGUAAACAA [Berere]	9.36		90.8		76.7
UGUAUGGAAACAUGAGGAUCACCCAUGUGGCGAGGACCGGUACGGCCGCCACUCGAGCAGCAAGCGUGUAUGACGCUGCUGCAUG [SS-trypA-0]	27.3	40.9	60.6	49.7	25.1
CAUAUAUAUAGAAGGAGCGUCGAAAAUGGGUAAACAUGAGGAUCACCCAUGUAAAGGGAACGACAGGUAGGUCGCUAUAUAUAUG [AstromonsSSArgB#3]	99.1	161	187	208	175
UUUAUGGAGCUUUUAUUUACGAUUUCUGAUACCAGUGUUUCAUUUCACCCUUGGCAGCAGUGACAUGAGGAUCACCCAUGUAAUA [JR_Nu_SSTheophyA_Sub020]	28.1		35.1		27.7
CUAGGAAACUAGUAAGGGUGGUAUUGAGAUACCAGUACAGAAAUGUACCCUUGGCAGCUCACUGCAACAUGAGGAUCACCCAUGU [Ex Theophylline A 12]	22.5		29.3		27
GGGAGGUAGGCGGCCGCCACUGAUUUUCAUAUAUAUAUAACAUGAGGAUCACCCAUGUAGAUAUGCAGGACCGGGCCUGUUUUUU [aaaK]	18.8		30.5	26.3	
UUUUUCGCGUUUGAUACCAGCAGAGUUGUUCUGGUCUGGUACAUGAGGAUCACCCAUGUCUGCCCUUGGCAGCAAACGGGAGAAG [XTheo #30]	14.5		15		14.8
ACUGCUUUAGCGGCCGCCACUACAUGGACACUUACACUUUCUUGUUACAUGAGGAUCACCCAUGUUAGGACCGGGCUUGUACGGA [theeternabot_exclusion_MS2_Trp_B_31]	30.5		82.6	68.4	
GCAUCCUAGUCGGCCGCCACUGACAUGAGGAUCACCCAUGUACAUGAGGAUCACCCAUGUUGUAACAGGACCGGGACUAGGAUGC [SS Tryp B #18]	69.3		112	141	
AAACAUUGCUGCGAUACCAGACAUGAGGAUCACCCAUGUACCAAGAAAACGUACAUAAAUGUCCCUUGGCAGCGCAGCAAUGAAA [MAT - Exclusion Theophlline B - Mod of Eli - D27]	216		514		651

Sequence	apparent KD of MS2 coat protein (input ligand: arginine 13.2 mM) [nM]	apparent KD of MS2 coat protein (input ligand: none) [nM]	apparent KD of MS2 coat protein [1] [nM]	apparent KD of MS2 coat protein [2] [nM]	apparent KD of MS2 coat protein [3] [nM]
AAUAAUAACAUGGGUGCACGAGUGGCAUAACGAGGACCGGUACGGCCGCCACUCGAACAUGAGGAUCACCCAUGUAGCCACUCGA [M'-T'-T-MS2-T'' - Design 4]	55.1	102	102	132	20.5
GAUCGAUCAUAGUACGAUCGUUUUGUGGAAGGAGCGCAGAGGACUGCAGGUAGGUCGCCACAUGAGGAUCACCCAUGUCAGGAUU [XARG-A 24]	99.9	61.5	62.5	122	32.8
UACAUACAUGAGGAUCACCCAUGUUGCGAUACCAGCGAAAGAGACCGCCCUUGGCAGCGCUCAUUUAGUUCCAUUCUUGAUCGAA [theeternabot_sameState_MS2_Theo_A_4]	14.5		23.7		14.7
ACGUAAUGCAGAAGGAGCGUCGACCUCUUACAUGAGGAUCACCCAUGUUGCAUGGUUGUACGACAGGUAGGUCGCUGAAGUACGA [#05 Exclusion - Arginine B]	34.5	38.2	89.5	68.1	65.4
AUGCCUAGUGGAAGGAGCGAGGGUCCUCUCAACAUGAGGAUCACCCAUGUUCUUUUGCACCCUCAGGUAGGUCGCCAUUGGGACA [Veanaris]	30.8	59.8	92.4	65.8	76
ACACAUGACAGAAGGAGCGGAAUGAACACACAUGAGGAUCACCCAUGUUUUUUUUGUGUUUUCCAGGUAGGUCGCUGACAUGAGG [#20 Same State - Arginine B]	11.2	8.99	20.7	9.54	8.95
AAAAUCCUACCUGAGGAUCACCCGGGUGAAGGAGCGCCCGAAAGGGCAGGUAGGUCGCACCUGAGGAUCACCCUGGUAAACCUAA [ArgEX 23 #DoubleMS2 #OpenEnded]	103	172	183	234	154
GAUAUGUAUCGAAGGAGCGGCCCUUGAUCCUCAUGAGACAUGAGGAUCACCCAUGUCUCGGGCCAGGUAGGUCGCGAUAUAUAUC [Astros-omei-mod3]	24.9	18.4	24.3	24.7	21.8
AAUAGCAUGAGGAUCACCCAUGUAAAAGAUACCAGAGUGAUGAUCCUCCCUUGGCAGCUUAACGCUGAUUGAUUACAAUCAGCGA	37	44.9	97.8	229	34.4
GGCGACAUGAGGAUCACCCAUGUGACACCUCGAGGACCGGUACGGCCGCCACUCGUAACCUGCACUAUAGCUACCACGAUUAGCC [theeternabot_sameState_MS2_Trp_A_44]	84.3		238	233	
CGUGUCGUAACUGAUACCAGUGUACUGACAUGAGGAUCACCCAUGUUGGGUUUUGUUGUACACCCUUGGCAGCAGAAUCGAUACG [AstrosExyTheB#7]	46.3		94		75.1
UGGUAUGUAGGAAGGAGCGCAUACUUCACAUGAGGAUCACCCAUGUCAAGACGUGAGUCAGUGCAGGUAGGUCGCCUAGUUAUGA [Same State - Arginine B (Freestyle 21)]	31.2	42.9	49.1	36.1	33.7
GCCAAAAUACCCGAUACCAGUAUUAAUAGCACAACCUCACACAUGAGGAUCACCCAUGUAUACCCUUGGCAGCGGCCUAACAUAA [theeternabot_exclusion_MS2_Theo_B_49]	30.5		55.3		36.9
GUGUACAUGAGGAUCACCCAUGUCGAGUUACGAGGACCGGUACGGCCGCCACUCGGCGGCUCGACACGGAUAGCGAUGCGUUGCU [#18 Exclusion Tryptophan A]	24.6		49.5	44.1	
GGUACAUGAGGAUCACCCAUGUAUGCGAGCCGAGGACCGGUACGGCCGCCACUCGCUUAACAUGAGGAUCACCCAUGUUUCUCGG [SSTA DOUBLE!!! :-D #15]	90.9	94.9	157	120	108
AGACUGUCUUCGGACAGUCCGGACAGCCCGCGAGGACCGGUACGGCCGCCACUCGCGUGAGGAUCACCCAUGCGAGGCUGUCCGA [Omei Tryp A Exc A v1]	27.5		40.1	46	69.9
AUGUAGCCGUCGACUGUACCUUAUGCCGAUACCAGCUACCCGUGAAGCCCUUGGCAGCGGGAAACAUGAGGAUCACCCAUGUCAG [theeternabot_exclusion_MS2_Theo_A_13]	19.6		29.6		24.7
GGGUACAUCGCGGCCGCCACUCAUGUAAAUACAUGAGGAUCACCCAUGUCGAUGGAGACAUCGGAGAGGACCGGGCGAUGUACCG	224	398	352	540	264
AAAUAAAUACAUGAGGAUCACCCAUGUGAAGGAGCGCCCGUUAGGGCAGGUAGGUCGCACAUGAACUCCAAAGUGCAAAAGCACA [ArgEX 17 #OpenEnded]	35.7	21.5	29.7	27.4	25.4
